From paper PMC5900569

These sequences were tested on cTSN (Tudor staphylococcal nuclease) (Caenorhabditis elegans) (assay: filter binding). Details: 50 mM HEPES pH 7.0, 250 mM NaCl, 5 mM beta-mercaptoethanol, 2 mM EDTA, 30 min, room temperature; cTSN 0-2 uM.

For “ACUGGACAAAUACUCCGAGG / CCUCGGAGUAUUUGUCCAGU [dsRNA 20 bp]”, which Kd is on record?
Its Kd is 393 nM.

Which Kd does the source give for ACUGGACAAAUACUCCGAGG [ssRNA 20 nt] here?
The Kd was 767 nM.

Which Kd does the source give for “CAGUCACCCAUAAAGUAGAAAGCACUAC / GUAGUGUUUCCUACUUUAUGGAUGAGUG [pre-miR142Δloop]” here?
Its Kd is 236 nM.

Which Kd does the source give for “CAGUCACCCAUAAAGUAGAAAGCACUACUGUGGGUAGUGUUUCCUACUUUAUGGAUGAGUG [pre-miR142]” here?
The Kd was 136 nM.

Same assay, conditions: inosine (A-to-I edited, positions in Figure 3); 50 mM HEPES pH 7.0, 250 mM NaCl, 5 mM beta-mercaptoethanol, 2 mM EDTA, 30 min, room temperature; cTSN 0-2 uM

Which Kd does the source give for “CAGUCACCCAUAAAGUAGAAAGCACUAC / GUAGUGUUUCCUACUUUAUGGAUGAGUG [pre-miR142Δloop-AtoI]” here?
Its Kd is 68.3 nM.

How did the Kd turn out when “CAGUCACCCAUAAAGUAGAAAGCACUACUGUGGGUAGUGUUUCCUACUUUAUGGAUGAGUG [pre-miR142-AtoI]” was run?
The Kd was 74.6 nM.
